These results are taken from patent publication US20170037083A1 (AVIXGEN, published 2017).

Assay [1] concerns the target T1, VEGFR-2 expressed in HUVECs (human, UniProt P35968 20-1356). In words: cell-based or functional assay.
The next assay deals with T2, rhVEGFR-2 (human, UniProt P35968 20-764, limits assumed).
T2 construct: Immobilised on the carboxymethylated dextran chip for SPR; also called recombinant human VEGFR-2; VEGF receptor-2
In words: SPR (BIAcore), rhVEGFR-2 immobilised on the chip, RLYE injected. The protocol:
Binding dynamics and affinity of RLYE to rhVEGFR-2 were evaluated with BIAcore AB (Sweden). A carboxymethylated dextran biosensor chip (CMS, BIAcore AB) was activated with 1-ethyl-3-(3-dimethylaminopropyl)carbodiimide and N-hydroxysuccinimide according to the manufacturer's manual. The rhVEGFR-2 (1 ng/μl, 10 mM Hepes, 150 mM NaCl, 3 mM EDTA, 0.005% Tween-20-containing HBS-EP buffer) was injected over the activated CMS chip for fixation. Various concentrations of an RLYE solution was injected over the rhVEGFR-2-fixed center chip with a flow rate of 25 μl/min, and binding and non-binding characteristics between RLYE and the rhVEGFR-2 were analyzed. The peptide bonds were measured in arbitrary response units, and after the injection of each sample (120 sec), the HBS-EP buffer was passed over a sensor surface to monitor dissociation. The equilibrium dissociation constant (Kd) was derived to a fixing step-combined model.
Meanwhile, the interaction between RLYE (SEQ ID NO: 2) and rhVEGFR-2 was examined by SPR analysis.
A general note: Surface plasmon resonance follows binding to a sensor surface in real time, without labels.

The target of assay [2] is T1, VEGFR-2 expressed in HUVECs. In words: flow cytometry (FACS) on HUVECs, FITC-RLYE 15 nM, VEGF-A 100 ng/ml added before or after. The protocol:
HUVECs were cultured in a 60-mm culture plate for 24 hours. The cells were isolated from the plate with 5 mM EDTA-containing phosphate-buffered saline (PBS), washed with PBS three times, and suspended in 2% FBS/0.1% bovine serum albumin-containing PBS. Afterward, before or after the reaction with FITC-conjugated RLYE (15 nM), the cells were treated with VEGF (100 ng/ml), stored on ice for 30 minutes, fixed in 2% paraformaldehyde, and assessed with a fluorescence activated cell sorter (FACS Calibur, Becton Dickinson) by flow cytometry.
(§1) Subsequently, it was investigated whether RLYE (SEQ ID NO: 2) interacts with VEGFR-2 expressed in HUVECs. HUVECs were cultured with FITC-RLYE before or after VEGF-A treatment, and FACS was performed to examine an amount of RLYE (SEQ ID NO: 2) binding to the HUVECs. […] To examine binding between RLYE (SEQ ID NO: 2) and VEGF receptors, a pull-down assay was performed. […] Therefore, the binding between RLYE (SEQ ID NO: 2) and VEGFR-2 was identified as a strong bond having a small dissociation coefficient (194 nM), and it was also seen that RLYE (SEQ ID NO: 2) binds to VEGFR-2 at the same positions to which VEGF-A/C binds (immunoglobulin homology domains D2 and D3) (see FIG. 10A).

The target of another assay is T3, VEGFR-1 (human, UniProt P17948 27-1338).
T3 construct: whole, on cells; In detergent lysate of HUVECs in the pull-down assay; on IM-9 and RPMI 8226 cells and HUVECs in the functional assays; also called VEGF receptor-1
Description: streptavidin-agarose pull-down from HUVEC lysate with biotin-labeled RLYE, immunoblot for VEGFR-1. The method, then: HUVECs were lysed in a pull-down buffer [50 mM Tris-HCl (pH 8.0), 150 mM sodium chloride, 1.0% NP-40, 0.5% sodium deoxycholate and 0.1% SDS]. A lysate ([…] of proteins) was reacted with biotin-labeled RLYE (0.15 or 1.5 nM) for 1 hour, and reacted with streptavidin-agarose beads ([…]) at 4° C. for 1 hour. RLYE-binding proteins were isolated from the cell lysate through centrifugation, washed, and then boiled for 10 minutes. The bead-binding proteins were isolated by SDS-PAGE, and immunoblotting was performed with an antibody with respect to VEGFR-2 or VEGFR-1.
as §1

Where no end group is shown, it is not given here.

T1 sequence (P35968 20-1356): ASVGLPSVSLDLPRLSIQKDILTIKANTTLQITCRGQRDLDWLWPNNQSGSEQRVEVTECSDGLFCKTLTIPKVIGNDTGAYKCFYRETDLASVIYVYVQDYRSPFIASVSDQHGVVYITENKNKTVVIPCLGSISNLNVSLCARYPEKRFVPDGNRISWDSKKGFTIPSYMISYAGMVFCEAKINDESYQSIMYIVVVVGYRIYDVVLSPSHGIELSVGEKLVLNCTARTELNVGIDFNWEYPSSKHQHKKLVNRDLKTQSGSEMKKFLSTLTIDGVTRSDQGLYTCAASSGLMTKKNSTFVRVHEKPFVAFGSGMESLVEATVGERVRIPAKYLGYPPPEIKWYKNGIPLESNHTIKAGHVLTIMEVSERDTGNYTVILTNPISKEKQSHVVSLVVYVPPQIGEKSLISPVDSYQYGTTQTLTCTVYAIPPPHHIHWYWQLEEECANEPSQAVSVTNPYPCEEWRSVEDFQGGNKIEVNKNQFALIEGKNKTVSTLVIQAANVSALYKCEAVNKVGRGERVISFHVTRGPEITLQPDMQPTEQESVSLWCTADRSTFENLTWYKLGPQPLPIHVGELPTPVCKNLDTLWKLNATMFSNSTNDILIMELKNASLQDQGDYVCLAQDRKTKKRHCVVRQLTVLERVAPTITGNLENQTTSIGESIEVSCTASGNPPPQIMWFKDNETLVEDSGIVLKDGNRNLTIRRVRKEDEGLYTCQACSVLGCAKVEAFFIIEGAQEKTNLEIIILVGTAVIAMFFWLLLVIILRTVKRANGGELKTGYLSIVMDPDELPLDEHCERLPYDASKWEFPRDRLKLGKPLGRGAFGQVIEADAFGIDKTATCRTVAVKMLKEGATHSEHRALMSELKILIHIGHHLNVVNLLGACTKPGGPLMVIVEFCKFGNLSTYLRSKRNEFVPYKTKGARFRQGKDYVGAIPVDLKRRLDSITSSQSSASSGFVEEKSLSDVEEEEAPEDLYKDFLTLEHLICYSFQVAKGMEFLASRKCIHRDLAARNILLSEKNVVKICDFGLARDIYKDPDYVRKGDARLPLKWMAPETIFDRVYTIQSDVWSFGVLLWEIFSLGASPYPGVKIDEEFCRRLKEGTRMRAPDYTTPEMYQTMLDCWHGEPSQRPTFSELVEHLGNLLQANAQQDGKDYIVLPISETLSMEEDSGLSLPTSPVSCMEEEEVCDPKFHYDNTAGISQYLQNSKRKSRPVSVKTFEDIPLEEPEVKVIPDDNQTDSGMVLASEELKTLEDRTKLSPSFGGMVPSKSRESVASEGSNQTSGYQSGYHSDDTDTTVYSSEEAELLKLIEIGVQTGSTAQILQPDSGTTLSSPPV
T3 sequence (P17948 27-1338): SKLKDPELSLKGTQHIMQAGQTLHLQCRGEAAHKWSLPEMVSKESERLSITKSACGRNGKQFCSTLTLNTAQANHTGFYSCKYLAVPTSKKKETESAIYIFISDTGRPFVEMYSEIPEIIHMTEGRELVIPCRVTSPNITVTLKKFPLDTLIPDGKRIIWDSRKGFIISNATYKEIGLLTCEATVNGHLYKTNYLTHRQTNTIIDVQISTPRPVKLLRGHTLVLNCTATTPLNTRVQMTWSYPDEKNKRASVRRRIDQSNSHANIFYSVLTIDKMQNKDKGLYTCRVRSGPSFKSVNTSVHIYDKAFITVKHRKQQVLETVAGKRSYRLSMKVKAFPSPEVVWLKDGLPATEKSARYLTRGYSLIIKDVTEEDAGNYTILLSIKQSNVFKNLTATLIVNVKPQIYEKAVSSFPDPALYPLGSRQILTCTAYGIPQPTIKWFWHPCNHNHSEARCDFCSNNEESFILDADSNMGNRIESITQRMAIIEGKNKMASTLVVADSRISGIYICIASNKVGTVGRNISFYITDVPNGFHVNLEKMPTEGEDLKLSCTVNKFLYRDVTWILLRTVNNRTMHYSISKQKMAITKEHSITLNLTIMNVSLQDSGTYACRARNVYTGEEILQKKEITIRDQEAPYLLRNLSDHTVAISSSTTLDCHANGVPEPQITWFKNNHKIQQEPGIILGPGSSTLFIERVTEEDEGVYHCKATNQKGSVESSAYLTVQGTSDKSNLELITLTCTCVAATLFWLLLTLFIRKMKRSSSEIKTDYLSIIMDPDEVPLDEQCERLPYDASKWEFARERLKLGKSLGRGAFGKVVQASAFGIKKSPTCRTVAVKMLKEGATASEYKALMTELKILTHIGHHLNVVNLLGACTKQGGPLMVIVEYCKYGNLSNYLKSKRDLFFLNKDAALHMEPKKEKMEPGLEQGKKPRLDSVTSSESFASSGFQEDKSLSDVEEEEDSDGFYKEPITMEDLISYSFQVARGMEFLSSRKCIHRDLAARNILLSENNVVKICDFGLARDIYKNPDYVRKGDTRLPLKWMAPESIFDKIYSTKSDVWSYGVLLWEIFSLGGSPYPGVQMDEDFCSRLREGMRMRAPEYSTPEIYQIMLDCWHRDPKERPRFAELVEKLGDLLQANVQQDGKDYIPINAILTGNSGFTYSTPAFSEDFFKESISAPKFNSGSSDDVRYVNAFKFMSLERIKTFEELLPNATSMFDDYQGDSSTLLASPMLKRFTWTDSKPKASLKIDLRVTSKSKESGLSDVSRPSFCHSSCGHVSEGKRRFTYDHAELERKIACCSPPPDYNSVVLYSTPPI
T2 sequence (P35968 20-764 limits assumed): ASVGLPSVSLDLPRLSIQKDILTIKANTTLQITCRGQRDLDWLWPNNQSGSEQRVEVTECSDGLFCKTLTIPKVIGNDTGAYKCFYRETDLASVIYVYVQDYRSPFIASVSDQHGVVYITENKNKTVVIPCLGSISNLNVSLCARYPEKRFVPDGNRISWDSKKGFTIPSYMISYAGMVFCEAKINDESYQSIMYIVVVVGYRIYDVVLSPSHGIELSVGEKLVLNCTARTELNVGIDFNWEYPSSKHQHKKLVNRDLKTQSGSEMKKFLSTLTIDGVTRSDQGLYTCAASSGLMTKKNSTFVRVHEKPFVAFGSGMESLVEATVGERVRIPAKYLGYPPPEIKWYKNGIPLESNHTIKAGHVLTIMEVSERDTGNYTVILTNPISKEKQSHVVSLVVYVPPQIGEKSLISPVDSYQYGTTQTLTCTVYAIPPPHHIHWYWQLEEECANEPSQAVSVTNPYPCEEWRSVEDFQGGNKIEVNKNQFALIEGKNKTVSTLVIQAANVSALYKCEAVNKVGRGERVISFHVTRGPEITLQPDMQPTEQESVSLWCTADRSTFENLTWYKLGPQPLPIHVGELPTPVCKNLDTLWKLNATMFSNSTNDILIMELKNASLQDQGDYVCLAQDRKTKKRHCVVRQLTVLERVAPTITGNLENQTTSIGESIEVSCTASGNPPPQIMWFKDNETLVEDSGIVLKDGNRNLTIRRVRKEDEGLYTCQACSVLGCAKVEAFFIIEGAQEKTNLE

B1: RLYE peptide (SEQ ID NO: 2) (peptide)
peptide: RLYE
notes: Unlabelled synthetic tetrapeptide, analyte in the SPR assay and used in the cell assays
By Kd is commonly meant the constant that tells how readily two partners part at equilibrium. A high value points to lower affinity. Regarding B1, in assay [1], the “IC50 of VEGF-induced HUVEC migration (transwell)” value is 0.06 nM and the “IC50 of VEGF-induced HUVEC proliferation ([3H]-thymidine incorporation)” value amounted to 0.08 nM. In the assay with rhVEGFR-2, this molecule registered a Kd of 9000 nM.

B2: FITC-conjugated RLYE (peptide)
peptide: RLYE
modifications: also: FITC-conjugated, site not given here
notes: Used at 15 nM in FACS and at 100 ng/ml in confocal microscopy on HUVECs; also called FITC-RLYE
As to B2, in assay [2], the binding result is on record as “binds”.

B3: biotin-labeled RLYE (peptide)
peptide: RLYE
modifications: also: biotin-labeled, site not given here
notes: Used at 0.15 or 1.5 nM in the pull-down from HUVEC lysate with streptavidin-agarose beads; also called biotinylated RLYE peptide
As for B3, in the assay with VEGFR-1, the binding result is “no binding”.
